What was measured:
[1] = system: c-Abl (mouse); assay: phosphorylation enrichment, bacterial display (enrichment ratio); higher = better substrate or ligand; peptides without Tyr show the background
[2] = molecular target: Jak2 (UniProt O60674); assay: as above
[3] = system: AncSZ; assay: as above
[4] = molecular target: EPHB1 (UniProt P54762); assay: as above
[5] = molecular target: FGFR3 (UniProt P22607); assay: as above
[6] = molecular target: Fyn (UniProt P06241); assay: as above
[7] = molecular target: FGFR1 (UniProt P11362); assay: as above
[8] = molecular target: Hck (UniProt P08631); assay: as above
[9] = molecular target: EPHB2 (UniProt P29323); assay: as above
Sequence of EPHB2 (P29323 whole entry, looked up): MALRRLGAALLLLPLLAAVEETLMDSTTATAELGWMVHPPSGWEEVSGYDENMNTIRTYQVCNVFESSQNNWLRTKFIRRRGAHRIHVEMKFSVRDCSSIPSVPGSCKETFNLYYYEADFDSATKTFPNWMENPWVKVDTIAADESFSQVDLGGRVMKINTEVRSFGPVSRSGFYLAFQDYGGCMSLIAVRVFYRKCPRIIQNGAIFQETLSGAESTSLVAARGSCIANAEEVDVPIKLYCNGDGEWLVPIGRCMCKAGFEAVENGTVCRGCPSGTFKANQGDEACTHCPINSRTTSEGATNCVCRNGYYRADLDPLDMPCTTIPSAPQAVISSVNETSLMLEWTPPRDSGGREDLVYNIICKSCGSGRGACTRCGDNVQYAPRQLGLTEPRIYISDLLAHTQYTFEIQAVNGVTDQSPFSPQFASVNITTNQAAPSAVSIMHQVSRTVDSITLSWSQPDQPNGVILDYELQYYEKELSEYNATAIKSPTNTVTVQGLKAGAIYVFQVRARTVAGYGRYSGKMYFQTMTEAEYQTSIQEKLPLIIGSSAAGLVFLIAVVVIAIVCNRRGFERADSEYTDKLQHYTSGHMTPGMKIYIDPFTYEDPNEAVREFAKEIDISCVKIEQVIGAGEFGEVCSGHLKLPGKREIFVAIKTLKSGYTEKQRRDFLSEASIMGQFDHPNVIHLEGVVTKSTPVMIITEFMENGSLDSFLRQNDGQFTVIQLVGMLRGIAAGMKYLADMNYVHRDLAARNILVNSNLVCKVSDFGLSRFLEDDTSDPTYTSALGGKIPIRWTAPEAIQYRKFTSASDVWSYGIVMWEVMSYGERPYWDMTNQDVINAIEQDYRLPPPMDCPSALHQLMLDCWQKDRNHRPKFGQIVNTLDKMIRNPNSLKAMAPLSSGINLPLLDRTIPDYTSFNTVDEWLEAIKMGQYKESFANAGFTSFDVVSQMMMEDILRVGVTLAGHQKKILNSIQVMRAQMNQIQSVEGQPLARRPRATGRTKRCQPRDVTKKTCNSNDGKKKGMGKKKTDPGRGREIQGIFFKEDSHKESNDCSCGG

[10] = system: Fer (mouse); assay: as above
[11] = molecular target: MERTK (UniProt Q12866); assay: as above
Sequence of MERTK (Q12866 whole entry, looked up): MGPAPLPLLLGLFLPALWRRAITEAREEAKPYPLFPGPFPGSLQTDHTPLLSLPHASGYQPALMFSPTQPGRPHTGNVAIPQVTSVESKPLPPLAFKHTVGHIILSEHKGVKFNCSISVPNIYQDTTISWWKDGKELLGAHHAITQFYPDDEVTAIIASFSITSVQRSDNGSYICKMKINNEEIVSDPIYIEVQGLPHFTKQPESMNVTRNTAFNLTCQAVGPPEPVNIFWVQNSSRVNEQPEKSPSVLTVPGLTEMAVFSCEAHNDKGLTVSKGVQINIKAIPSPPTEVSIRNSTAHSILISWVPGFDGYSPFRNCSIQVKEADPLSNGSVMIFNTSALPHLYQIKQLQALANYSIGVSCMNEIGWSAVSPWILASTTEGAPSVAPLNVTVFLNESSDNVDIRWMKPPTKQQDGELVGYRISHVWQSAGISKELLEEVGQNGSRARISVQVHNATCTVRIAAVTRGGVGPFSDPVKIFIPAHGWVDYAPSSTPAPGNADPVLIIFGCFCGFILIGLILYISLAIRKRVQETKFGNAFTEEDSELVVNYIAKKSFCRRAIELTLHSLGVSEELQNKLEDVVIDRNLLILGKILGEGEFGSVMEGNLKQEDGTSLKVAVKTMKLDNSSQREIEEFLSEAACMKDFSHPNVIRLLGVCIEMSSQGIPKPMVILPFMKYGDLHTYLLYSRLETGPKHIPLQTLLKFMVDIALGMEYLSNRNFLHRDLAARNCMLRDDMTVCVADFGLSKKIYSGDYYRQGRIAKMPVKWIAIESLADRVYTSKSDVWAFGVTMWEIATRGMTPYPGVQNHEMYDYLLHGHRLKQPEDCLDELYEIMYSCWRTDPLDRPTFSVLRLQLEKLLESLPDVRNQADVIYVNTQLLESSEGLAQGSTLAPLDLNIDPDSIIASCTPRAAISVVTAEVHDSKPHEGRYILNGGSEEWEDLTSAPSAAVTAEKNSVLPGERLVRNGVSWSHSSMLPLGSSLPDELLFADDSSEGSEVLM

[12] = system: c-Src; assay: as above
[13] = molecular target: Fes (UniProt P07332); assay: as above
Sequence of Fes (P07332 whole entry, looked up): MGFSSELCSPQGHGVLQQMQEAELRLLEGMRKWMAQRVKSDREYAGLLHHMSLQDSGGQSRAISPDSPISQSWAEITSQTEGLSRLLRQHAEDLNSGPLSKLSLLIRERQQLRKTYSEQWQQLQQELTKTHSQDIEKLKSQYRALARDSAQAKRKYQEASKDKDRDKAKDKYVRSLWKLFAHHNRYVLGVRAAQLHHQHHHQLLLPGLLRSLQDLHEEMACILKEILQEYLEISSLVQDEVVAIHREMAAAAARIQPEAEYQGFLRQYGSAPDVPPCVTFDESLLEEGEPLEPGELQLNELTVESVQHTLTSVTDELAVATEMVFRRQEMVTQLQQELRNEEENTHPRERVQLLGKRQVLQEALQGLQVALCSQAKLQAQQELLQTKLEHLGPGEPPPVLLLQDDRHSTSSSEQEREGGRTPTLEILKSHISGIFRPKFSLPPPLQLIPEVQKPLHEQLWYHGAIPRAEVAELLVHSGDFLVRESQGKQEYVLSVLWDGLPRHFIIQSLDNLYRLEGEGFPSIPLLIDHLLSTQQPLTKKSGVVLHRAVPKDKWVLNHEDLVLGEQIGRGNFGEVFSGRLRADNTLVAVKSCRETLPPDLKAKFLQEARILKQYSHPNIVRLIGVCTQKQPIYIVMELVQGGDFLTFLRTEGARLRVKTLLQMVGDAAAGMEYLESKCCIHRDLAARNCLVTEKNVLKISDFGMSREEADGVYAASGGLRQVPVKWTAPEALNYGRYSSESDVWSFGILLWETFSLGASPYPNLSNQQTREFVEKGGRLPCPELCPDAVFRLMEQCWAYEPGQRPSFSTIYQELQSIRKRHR

[14] = molecular target: c-Src SH2; assay: SH2 binding enrichment of the phosphorylated peptide, bacterial display (enrichment ratio); higher = better substrate or ligand; peptides without Tyr show the background
[15] = molecular target: Grb2 SH2 (UniProt P62993); assay: as above
Sequence of Grb2 SH2 (P62993 whole entry, looked up): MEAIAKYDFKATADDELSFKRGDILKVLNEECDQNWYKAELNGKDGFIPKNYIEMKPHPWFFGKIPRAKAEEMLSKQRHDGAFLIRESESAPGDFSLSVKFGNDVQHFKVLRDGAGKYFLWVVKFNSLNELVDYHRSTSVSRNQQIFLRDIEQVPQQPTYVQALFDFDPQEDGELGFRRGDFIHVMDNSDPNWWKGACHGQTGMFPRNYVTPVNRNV

[16] = molecular target: SHP2-C SH2; assay: as above
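For SH2 binding enrichment of the phosphorylated peptide, bacterial display in this document: peptide library displayed on the E. coli surface as eCPX fusions, selected cells deep-sequenced, score is each peptide's frequency after selection divided by its frequency in the input.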
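For phosphorylation enrichment, bacterial display in this document: 11-residue human phosphosite peptides and single-mutation variants displayed on the E. coli surface, counted by deep sequencing, each peptide's frequency after selection divided by its frequency in the unselected input library; frequency after pTyr selection over input frequency; kinase dosed for 20-30% of maximal phosphorylation in three min.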

Sequence of FGFR3 (P22607 whole entry, looked up): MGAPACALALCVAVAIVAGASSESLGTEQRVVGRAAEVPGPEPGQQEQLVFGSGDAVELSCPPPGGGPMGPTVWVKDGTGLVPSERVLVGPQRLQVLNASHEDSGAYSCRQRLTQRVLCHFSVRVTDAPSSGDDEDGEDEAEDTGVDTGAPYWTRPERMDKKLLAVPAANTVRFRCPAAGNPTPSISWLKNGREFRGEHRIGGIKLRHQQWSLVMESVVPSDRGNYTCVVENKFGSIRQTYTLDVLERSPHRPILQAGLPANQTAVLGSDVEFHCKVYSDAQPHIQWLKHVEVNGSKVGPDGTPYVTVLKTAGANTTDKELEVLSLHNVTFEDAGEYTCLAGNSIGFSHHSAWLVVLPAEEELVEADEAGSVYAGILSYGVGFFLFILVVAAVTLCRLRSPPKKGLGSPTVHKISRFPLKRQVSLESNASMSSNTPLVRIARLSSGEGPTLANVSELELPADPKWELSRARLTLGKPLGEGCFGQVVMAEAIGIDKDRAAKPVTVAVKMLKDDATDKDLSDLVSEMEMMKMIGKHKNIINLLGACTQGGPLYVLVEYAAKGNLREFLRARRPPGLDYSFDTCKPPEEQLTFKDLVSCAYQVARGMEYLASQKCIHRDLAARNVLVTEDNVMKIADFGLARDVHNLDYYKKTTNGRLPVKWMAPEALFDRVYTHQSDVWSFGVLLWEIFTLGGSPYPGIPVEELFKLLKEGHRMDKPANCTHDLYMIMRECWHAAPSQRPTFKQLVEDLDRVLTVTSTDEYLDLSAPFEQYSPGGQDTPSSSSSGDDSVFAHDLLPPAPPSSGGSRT
Sequence of EPHB1 (P54762 whole entry, looked up): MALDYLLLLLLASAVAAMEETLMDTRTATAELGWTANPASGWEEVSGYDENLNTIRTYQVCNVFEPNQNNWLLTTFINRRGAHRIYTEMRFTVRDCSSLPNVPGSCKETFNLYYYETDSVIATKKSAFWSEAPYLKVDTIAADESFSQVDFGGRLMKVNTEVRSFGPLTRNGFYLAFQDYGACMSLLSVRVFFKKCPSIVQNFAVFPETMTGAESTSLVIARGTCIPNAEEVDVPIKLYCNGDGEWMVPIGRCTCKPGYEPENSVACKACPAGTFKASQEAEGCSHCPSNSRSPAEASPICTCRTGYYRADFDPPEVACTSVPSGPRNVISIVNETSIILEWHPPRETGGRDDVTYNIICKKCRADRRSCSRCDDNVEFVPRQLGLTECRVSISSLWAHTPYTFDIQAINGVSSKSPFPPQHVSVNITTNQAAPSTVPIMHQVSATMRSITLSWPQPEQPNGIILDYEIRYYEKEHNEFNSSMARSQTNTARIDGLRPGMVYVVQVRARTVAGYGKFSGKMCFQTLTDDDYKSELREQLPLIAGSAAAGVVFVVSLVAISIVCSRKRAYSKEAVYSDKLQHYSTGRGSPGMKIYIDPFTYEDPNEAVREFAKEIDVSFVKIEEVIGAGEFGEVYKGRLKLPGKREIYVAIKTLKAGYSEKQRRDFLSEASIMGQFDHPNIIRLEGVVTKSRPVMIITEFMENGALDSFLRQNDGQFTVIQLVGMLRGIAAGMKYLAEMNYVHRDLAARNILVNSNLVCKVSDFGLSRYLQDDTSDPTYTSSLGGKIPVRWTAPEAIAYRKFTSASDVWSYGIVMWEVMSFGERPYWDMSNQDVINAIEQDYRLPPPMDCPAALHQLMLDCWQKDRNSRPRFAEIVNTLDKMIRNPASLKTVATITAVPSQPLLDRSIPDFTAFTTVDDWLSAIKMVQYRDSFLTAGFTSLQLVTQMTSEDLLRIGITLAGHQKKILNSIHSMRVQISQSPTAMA

| Sequence | phosphorylation enrichment [1] | phosphorylation enrichment [2] | phosphorylation enrichment [3] | phosphorylation enrichment [4] | phosphorylation enrichment [5] | phosphorylation enrichment [6] | phosphorylation enrichment [7] | phosphorylation enrichment [8] | phosphorylation enrichment [9] | phosphorylation enrichment [10] | phosphorylation enrichment [11] | phosphorylation enrichment [12] | phosphorylation enrichment [13] | SH2 binding enrichment [14] | SH2 binding enrichment [15] | SH2 binding enrichment [16] |
| --- | --- | --- | --- | --- | --- | --- | --- | --- | --- | --- | --- | --- | --- | --- | --- | --- |
| VEYAKYGSLQG [RET_Y809_R813Q] | 0.523 | 0.58 | 0.614 | 0.505 | 0.539 | 1.44 | 0.549 | 0.846 | 0.438 | 0.458 | 0.418 | 1.44 | 0.662 | 0.786 | 0.852 | 4.76 |
| VFDMLYQLANL [USP24_Y1087] | 0.945 | 0.874 | 1.52 | 1.32 | 0.82 | 3 | 0.754 | 3.29 | 1.34 | 14.1 | 2.5 | 5.01 | 1.08 | 1.11 | 1.53 | 1.84 |
| VFSATYHPDHW [EFCAB12_Y544_P541S_YF] | 0.676 | 0.807 | 0.739 | 0.518 | 0.614 | 0.472 | 0.548 | 0.466 | 0.519 | 0.55 | 0.492 | 0.761 | 0.785 | 0.565 | 0.834 | 0.699 |
| VHKEGYNKLNQ [ZNF676_Y98] | 0.752 | 0.668 | 0.55 | 0.467 | 0.511 | 0.38 | 0.356 | 0.381 | 0.331 | 0.367 | 0.426 | 0.463 | 0.539 | 0.416 | 0.89 | 0.624 |
| VIEQRYNETWL [SLC2A4_Y56_S55R] | 0.659 | 0.744 | 0.809 | 0.467 | 0.553 | 0.538 | 0.516 | 0.468 | 0.519 | 0.457 | 0.381 | 0.402 | 1.05 | 0.605 | 0.92 | 0.497 |
| VIESSYQVAKA [CPT1B_Y534] | 0.558 | 0.535 | 0.7 | 0.454 | 0.404 | 0.457 | 0.489 | 0.577 | 0.483 | 0.448 | 0.44 | 0.483 | 0.815 | 0.537 | 0.906 | 0.782 |
| VIEYSYTSADG [DHCR7_Y382_C380Y] | 0.686 | 0.897 | 1.34 | 0.699 | 0.82 | 0.497 | 0.711 | 0.557 | 0.633 | 0.538 | 0.365 | 0.536 | 1.19 | 6.21 | 0.927 | 3.63 |
| VISNAYVDLSP [HSD17B4_Y602_A606S] | 0.711 | 0.829 | 1.11 | 0.443 | 0.62 | 0.534 | 0.896 | 0.542 | 0.523 | 0.511 | 0.518 | 0.525 | 0.818 | 3.09 | 0.593 | 0.753 |
| VKANTYEKYWL [GATM_Y100_P105L] | 0.644 | 0.733 | 0.794 | 0.661 | 0.541 | 0.668 | 0.582 | 0.583 | 0.5 | 2.47 | 0.875 | 0.652 | 0.837 | 1.14 | 0.993 | 0.687 |
| VKANTYENFWP [GATM_Y100_K102N_YF] | 0.904 | 0.954 | 0.926 | 3.6 | 0.661 | 3.61 | 0.415 | 2.1 | 2.03 | 2.02 | 3.58 | 4.08 | 1.04 | 2.84 | 12.5 | 1.58 |
| VKANTYENYWP [GATM_Y100_K102N] | 0.801 | 0.994 | 0.893 | 7.05 | 0.818 | 2.59 | 1.17 | 1.65 | 7.05 | 1.2 | 2.41 | 3.07 | 0.81 | 3.55 | 13.2 | 1.9 |
| VMSGPYELKAL [IL1B_Y140] | 0.481 | 0.463 | 0.51 | 0.303 | 0.57 | 0.564 | 0.419 | 0.491 | 0.512 | 0.447 | 0.351 | 0.873 | 0.622 | 0.533 | 0.92 | 1.52 |
| VNCHQYDGLVG [ATP2A2_Y407_E412G] | 0.684 | 0.736 | 0.931 | 0.433 | 0.673 | 0.48 | 0.559 | 0.502 | 0.546 | 0.518 | 0.451 | 0.559 | 0.847 | 11.1 | 0.785 | 0.686 |
| VNKIYHPDFIV [LIG3_Y768_Y768H] | 0.562 | 0.796 | 0.62 | 0.355 | 0.589 | 0.446 | 0.453 | 0.481 | 0.417 | 0.388 | 0.483 | 0.484 | 0.715 | 0.529 | 0.747 | 0.72 |
| VRFMANTDETF [F8_Y450_Y450N] | 0.604 | 0.849 | 0.928 | 0.701 | 0.653 | 0.408 | 0.439 | 0.462 | 0.568 | 0.436 | 0.408 | 0.44 | 1.12 | 0.452 | 0.645 | 0.722 |
| VRSNHYDPEED [TJP1_Y1346] | 0.688 | 0.974 | 1.27 | 0.494 | 0.748 | 0.568 | 0.66 | 0.579 | 0.608 | 0.49 | 0.526 | 0.445 | 1.19 | 0.578 | 1.02 | 0.744 |
| VSLEAYCKHKY [RXRA_Y403_A398V] | 0.96 | 1.05 | 1.01 | 0.7 | 0.662 | 0.656 | 0.611 | 0.579 | 0.584 | 0.541 | 0.559 | 0.46 | 1.24 | 0.421 | 0.62 | 0.627 |

| Sequence | phosphorylation enrichment [1] | phosphorylation enrichment [2] | phosphorylation enrichment [3] | phosphorylation enrichment [4] | phosphorylation enrichment [5] | phosphorylation enrichment [6] | phosphorylation enrichment [7] | phosphorylation enrichment [8] | phosphorylation enrichment [9] | phosphorylation enrichment [10] | phosphorylation enrichment [11] | phosphorylation enrichment [12] | phosphorylation enrichment [13] | SH2 binding enrichment [14] | SH2 binding enrichment [15] | SH2 binding enrichment [16] |
| --- | --- | --- | --- | --- | --- | --- | --- | --- | --- | --- | --- | --- | --- | --- | --- | --- |
| VSRGRYRPQEC [B4GALT4_Y113] | 0.545 | 0.655 | 0.754 | 0.527 | 0.515 | 0.574 | 0.475 | 0.49 | 0.476 | 0.542 | 0.575 | 0.657 | 0.643 | 0.43 | 0.62 | 0.409 |
| VSTKVYKRFPS [BEST1_Y148_A146K] | 0.505 | 0.47 | 0.445 | 0.344 | 0.305 | 0.366 | 0.384 | 0.352 | 0.348 | 0.422 | 0.365 | 0.425 | 0.605 | 0.656 | 1.1 | 0.848 |
| VTRAKYFIRDE [GNAS_Y339] | 0.458 | 0.622 | 0.654 | 0.356 | 0.432 | 0.404 | 0.45 | 0.409 | 0.405 | 0.325 | 0.405 | 0.375 | 0.694 | 0.358 | 0.989 | 0.54 |
| VTRLWYPVCFG [ITK_Y336_R335W] | 0.89 | 1.02 | 1.17 | 0.66 | 1.36 | 0.502 | 1.11 | 0.488 | 0.699 | 0.509 | 0.412 | 0.403 | 1.35 | 0.745 | 1.07 | 0.936 |
| VVDVTYDDVPI [FLNB_Y1308_E1305D] | 0.801 | 0.951 | 1.38 | 2.21 | 0.697 | 1.04 | 0.506 | 1.3 | 1.23 | 3.96 | 0.511 | 1.05 | 1.27 | 0.518 | 0.822 | 0.866 |
| VVEVTYDDVPI [FLNB_Y1308] | 0.805 | 1.1 | 2.02 | 1.57 | 0.947 | 1.76 | 0.742 | 1.82 | 1.07 | 5.94 | 0.688 | 1.3 | 1.56 | 0.519 | 0.819 | 0.529 |
| VVIVLYFSLWK [SLC6A2_Y249] | 0.942 | 0.64 | 0.703 | 0.254 | 0.459 | 0.241 | 0.486 | 0.42 | 0.453 | 0.314 | 0.39 | 0.348 | 1.13 | 1.22 | 1.59 | 1.56 |
| VVVTKYCKEEL [ATP7B_Y1078_A1074V] | 0.873 | 0.968 | 1.08 | 0.639 | 0.824 | 0.568 | 0.58 | 0.546 | 0.658 | 0.554 | 0.447 | 0.492 | 1.37 | 0.369 | 0.637 | 0.609 |
| VYLGAYDCFLP [SLC22A5_Y486_R488C] | 1.77 | 1.28 | 2.18 | 5.46 | 1.09 | 7.34 | 1.15 | 5.14 | 8.08 | 7.23 | 7.36 | 6.4 | 1.41 | 0.992 | 1.1 | 1.36 |
| WDLPEYSFKDP [ITGA3_Y237_S235P_YF] | 0.871 | 1.18 | 2.37 | 0.558 | 0.836 | 3.1 | 0.486 | 1.19 | 0.571 | 0.421 | 0.381 | 1.02 | 1.25 | 0.502 | 0.931 | 1.04 |
| WFPANYVKLLS [ITSN1_Y1132] | 0.596 | 1.51 | 0.785 | 4.12 | 0.825 | 0.419 | 0.763 | 0.549 | 1.52 | 0.518 | 0.569 | 0.399 | 0.841 | 0.893 | 1.02 | 2.25 |
| WHHTFYNELCV [ACTC1_Y93_R97C] | 0.761 | 1.03 | 1.19 | 0.793 | 0.979 | 0.574 | 0.881 | 1.18 | 0.658 | 1.04 | 0.905 | 0.73 | 1.23 | 1.2 | 0.86 | 0.767 |
| WHHTFYNELRV [ACTA1_Y93] | 0.657 | 0.783 | 0.875 | 0.558 | 0.645 | 0.502 | 0.552 | 0.997 | 0.483 | 0.54 | 0.587 | 0.546 | 1.01 | 1.9 | 1.2 | 1.52 |
| WKGSWYSMRKM [FGB_Y475] | 0.71 | 0.847 | 1.07 | 0.588 | 0.716 | 0.49 | 0.676 | 0.523 | 0.513 | 0.473 | 0.499 | 0.538 | 1.11 | 1.97 | 1.78 | 1.48 |
| YCRHNYGAVES [HLA-DRB1_Y112_V114A] | 0.696 | 0.739 | 0.658 | 0.566 | 0.659 | 0.416 | 0.519 | 0.549 | 0.623 | 0.514 | 0.549 | 0.503 | 0.678 | 1.34 | 0.902 | 0.704 |
| YDRREYSRFEK [ITGB7_Y758] | 0.96 | 0.925 | 0.902 | 0.486 | 0.554 | 0.498 | 0.459 | 0.673 | 0.483 | 0.545 | 0.512 | 0.702 | 0.957 | 0.737 | 1.02 | 0.813 |
